Values quoted from earlier work as cited in paper PMC7514057.

Biological target: ArkA peptide (Ark1p) Lys(3) to Lys(-8) (Saccharomyces cerevisiae) (UniProt P53974)

In the case of Abp1p SH3 (from UniProt P15891), the Kd is listed as 1.7 µM.
